Measurements from US9045765B2, “EPSP synthase genes conferring herbicide resistance” (priority 2006, dated 2015).

How the values were obtained:
[1] = test system: GRG31 EPSP synthase enzymatic activity; assay: Thermal stability of GRG31 enzymatic activity at 37° C. (AMPLEX Red assay, 2 mM glyphosate); format: biochemical, Sphingobacterium multivorum/faecium
Protocol: Following IPTG induction, the GRG31 protein was purified to homogeneity by standard methods. To measure enzymatic activity, the purified GRG31 enzyme was diluted to an appropriate assay concentration in buffer containing HEPES (50 mM, pH 7) and 50 mM KCl, and then incubated at 37° C. for 0, 2, 6 or 22 hours. A control sample was incubated alongside at 4° C. At each timepoint, an aliquot was removed from each sample and enzymatic assays were carried out in a final volume of 50 μl containing 0.5 mM shikimate-3-phosphate, 200 uM phosphoenolpyruvate (PEP), 1 U/ml xanthine oxidase, 2 U/ml nucleoside phosphorylase, 2.25 mM inosine, 1 U/ml horseradish peroxidase, 2 mM glyphosate, 50 mM HEPES/KOH pH 7.0, 100 mM KCl, and AMPLEX® Red (Invitrogen) according to the manufacturer's instructions. Assays were started by adding shikimate-3-phosphate. EPSP synthase activity was measured using a Spectramax Gemini XPS fluorescence spectrometer (Molecular Dynamics, excitation: 555 nm; emission: 590 nm). EPSP synthase thermal stability was calculated as the percentage of enzymatic activity at each timepoint at 37° C. relative to enzymatic activity in the control sample incubated alongside at 4° C. (Table 6).

[2] = test system: GRG31 EPSP synthase enzymatic activity; assay: Temperature optimum of GRG31 enzymatic activity (phosphate release, AMPLEX Red fluorescence); format: biochemical, Sphingobacterium multivorum/faecium
Protocol: Following IPTG induction, the GRG31 protein was purified to homogeneity by standard methods. […] Following incubation, the enzyme was heated to 90° C. for 1 minute to denature the enzyme, and then cooled to 4° C. The phosphate generated by each reaction was then added to a second assay containing inosine, purine nucleoside phosphorylase, xanthine oxidase, horseradish peroxidase, and the fluorescent substrate AMPLEX® Red (U.S. Patent Application No. 60/741,166, filed Dec. 1, 2005). Following incubation for 15 minutes at room temperature, fluorescent product was quantified using a Gemini XPS spectrofluorometer (Molecular Devices Corporation, Sunnyvale, Calif.). EPSP synthase product formation was measured, and is expressed in Table 5 as a percentage of maximal activity.

B1: GRG31: glyphosate-resistant EPSP synthase, predicted translation product of grg31, from strain ATX21318 (protein)
chain: MNQQVITLTHPSKKIQGTVQLTGSKSESNRALIIQSLSKGQVEIANLSEAADTVTLNRVLQIASDPKPGFNTIDIGPAGTAMRFLTAYLNLVKGNFILTGTERMQQRPIGILVDAMKEIGADIHYDKKVGYPPLKIEGGLFQEKDRVKIKGNISSQYISALLLIAPALKKGLTLEIEGELTSRPYVSMTLDMLKSVGIQHEWKNNAIKIAPQAFEKQTIYVEPDWSAASYWYAIAALADANASIVLPGLRKNSLQGDIAIISIMEHFGVQSSFESDGLHLNKKVIGSDVSLFNFKECPDLAQTVVVVAAALKRDVSFTGLETLKIKETDRIAALQKEIAKFGAELIEDGDTYHLKTAQVYQPEEVTFDTYEDHRMAMAFAPLALVFDQIKIAEPQVVEKSYPDFWNHLQAQAFVIE
modifications: Sphingobacterium multivorum/faecium
notes: glyphosate-resistant EPSP synthase, predicted translation product of grg31, from strain ATX21318
- Percentage of control (enzymatic activity at 37° C. relative to control at 4° C.) ([1]; 0 hours at 37° C.): 100%
- Percentage of control (enzymatic activity at 37° C. relative to control at 4° C.) ([1]; 2 hours at 37° C.): 86%
- Percentage of control (enzymatic activity at 37° C. relative to control at 4° C.) ([1]; 6 hours at 37° C.): 68%
- Percentage of control (enzymatic activity at 37° C. relative to control at 4° C.) ([1]; 22 hours at 37° C.): 29%
- Percentage of Maximal Activity ([2]; 10 ° C., 15 minutes incubation): 42%
- Percentage of Maximal Activity ([2]; 20 ° C., 15 minutes incubation): 62%
- Percentage of Maximal Activity ([2]; 30 ° C., 15 minutes incubation): 69%
- Percentage of Maximal Activity ([2]; 40 ° C., 15 minutes incubation): 80%
- Percentage of Maximal Activity ([2]; 50 ° C., 15 minutes incubation): 100%
- Percentage of Maximal Activity ([2]; 60 ° C., 15 minutes incubation): 96%
- Percentage of Maximal Activity ([2]; 70 ° C.): 67%
- Percentage of Maximal Activity ([2]; 80 ° C.): 36%
